The target in assay [1] is FlhA (Cpn0363), putative flagellar integral membrane protein, full length, bacterial-2-hybrid fusion (C. pneumoniae). In words: two-hybrid; bacterial-2-hybrid in E. coli DHP-1, proteins fused to adenylate cyclase fragments from pT18 and pT25; β-galactosidase activity, in triplicate; cut off for a positive interaction 577 units (table footnote; 677 in the methods).
The target of assay [2] is CdsD-FHA-2, bacterial-2-hybrid fusion (positive control) (C. pneumoniae). The assay is described as above.
Assay [3] addresses Full length His-Cpn0859 (C. pneumoniae). In words: cross-linking.
For assay [4], the target named is CopN, putative T3S plug protein, bacterial-2-hybrid fusion (C. pneumoniae). In words: two-hybrid.
For assay [5], the target named is CdsL, putative T3S ATPase tethering protein, bacterial-2-hybrid fusion (C. pneumoniae). In words: two-hybrid; bacterial-2-hybrid in E. coli DHP-1, proteins fused to adenylate cyclase fragments from pT18 and pT25; β-galactosidase activity, in triplicate; cut off for a positive interaction 577 units (table footnote; 677 in the methods).

“Cpn0322 (putative CdsU, YscU ortholog), bacterial-2-hybrid fusion (natural protein)”: the β-galactosidase activity (units/mg bacteria) in assay [1] is 780.

In assay [1], “FliF (Cpn0860), putative flagellar MS ring protein, full length, bacterial-2-hybrid fusion (natural protein)” returned a β-galactosidase activity (units/mg bacteria) of 847.

In assay [2], “PknD, bacterial-2-hybrid fusion (positive control) (natural protein)” gave a β-galactosidase activity (units/mg bacteria) of 996.

Consider “Full length His-Cpn0859 (natural protein)”, for which the stoichiometry N in assay [3] is 2.

In the case of “FliI (Cpn0858), putative flagellar ATPase, bacterial-2-hybrid fusion (enzyme)”, the figures for the β-galactosidase activity (units/mg bacteria) in assay [4], in assay [1] and in assay [5] were 943, 943 and 874, respectively.

“CdsL, putative T3S ATPase tethering protein, bacterial-2-hybrid fusion (natural protein)” yielded a β-galactosidase activity (units/mg bacteria) in assay [1] of 832.

The stoichiometry N is the number of molecules, sites or subunits per partner or assembly.
